# Source: patent US20260209362A1 (VIB VZW, published 2026)
# Numbering of substitutions follows the chain as printed.
# T1: human IL-12Rβ2 (human, UniProt Q99665 24-862)
# T1 construct: Expressed on HEK293T cells transiently transfected with a pcDNA3 plasmid (Genscript clone OHu21785); also called hIL-12RB2; IL-12 receptor β2 subunit
# T1 sequence: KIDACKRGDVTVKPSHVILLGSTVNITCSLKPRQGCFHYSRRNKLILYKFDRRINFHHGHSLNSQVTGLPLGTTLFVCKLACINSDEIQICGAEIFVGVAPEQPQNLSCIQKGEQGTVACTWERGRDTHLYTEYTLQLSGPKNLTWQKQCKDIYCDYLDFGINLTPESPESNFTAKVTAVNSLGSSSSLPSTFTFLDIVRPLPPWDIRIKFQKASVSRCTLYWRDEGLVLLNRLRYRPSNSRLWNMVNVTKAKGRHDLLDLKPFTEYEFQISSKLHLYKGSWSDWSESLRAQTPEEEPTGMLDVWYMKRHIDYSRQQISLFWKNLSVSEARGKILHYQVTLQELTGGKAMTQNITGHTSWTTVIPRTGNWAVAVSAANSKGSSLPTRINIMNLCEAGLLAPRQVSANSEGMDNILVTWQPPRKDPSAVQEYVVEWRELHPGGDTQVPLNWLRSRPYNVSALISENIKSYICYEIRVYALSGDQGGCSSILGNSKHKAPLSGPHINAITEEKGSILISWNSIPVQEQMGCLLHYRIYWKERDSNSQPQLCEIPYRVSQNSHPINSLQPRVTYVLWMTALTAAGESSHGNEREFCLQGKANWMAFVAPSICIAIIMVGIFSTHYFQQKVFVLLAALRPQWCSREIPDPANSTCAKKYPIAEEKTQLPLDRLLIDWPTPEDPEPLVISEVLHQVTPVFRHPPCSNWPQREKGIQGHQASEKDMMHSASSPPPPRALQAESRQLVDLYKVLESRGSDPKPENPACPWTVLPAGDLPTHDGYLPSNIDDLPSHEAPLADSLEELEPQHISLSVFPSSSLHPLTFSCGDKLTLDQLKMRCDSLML
# T2: biotinylated recombinant human IL-12Rβ2 (human, UniProt Q99665 24-622, random biotinylated)
# T2 construct: Recombinant protein produced in-house, biotinylated; also called hIL-12RB2; human IL-12RB2
# T2 sequence: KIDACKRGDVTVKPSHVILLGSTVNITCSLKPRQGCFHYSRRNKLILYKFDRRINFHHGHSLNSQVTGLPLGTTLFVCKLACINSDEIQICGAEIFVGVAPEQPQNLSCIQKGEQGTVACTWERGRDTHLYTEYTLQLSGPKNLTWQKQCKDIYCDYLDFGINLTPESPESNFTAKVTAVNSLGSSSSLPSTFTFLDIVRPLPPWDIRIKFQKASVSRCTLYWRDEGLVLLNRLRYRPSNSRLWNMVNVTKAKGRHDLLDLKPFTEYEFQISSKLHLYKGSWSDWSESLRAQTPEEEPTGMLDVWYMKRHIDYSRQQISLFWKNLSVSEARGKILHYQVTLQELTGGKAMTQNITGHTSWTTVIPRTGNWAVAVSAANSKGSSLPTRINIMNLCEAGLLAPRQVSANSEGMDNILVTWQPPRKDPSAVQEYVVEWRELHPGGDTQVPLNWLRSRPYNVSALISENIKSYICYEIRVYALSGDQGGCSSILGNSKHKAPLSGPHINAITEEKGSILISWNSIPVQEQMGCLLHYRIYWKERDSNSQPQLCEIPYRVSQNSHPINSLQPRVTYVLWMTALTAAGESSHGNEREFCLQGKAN
# T3: biotinylated recombinant mouse IL-12Rβ2 (mouse, UniProt P97378 24-637, random biotinylated)
# T3 construct: Recombinant protein produced in-house, biotinylated; also called mIL-12RB2; mouse IL-12RB2
# T3 sequence: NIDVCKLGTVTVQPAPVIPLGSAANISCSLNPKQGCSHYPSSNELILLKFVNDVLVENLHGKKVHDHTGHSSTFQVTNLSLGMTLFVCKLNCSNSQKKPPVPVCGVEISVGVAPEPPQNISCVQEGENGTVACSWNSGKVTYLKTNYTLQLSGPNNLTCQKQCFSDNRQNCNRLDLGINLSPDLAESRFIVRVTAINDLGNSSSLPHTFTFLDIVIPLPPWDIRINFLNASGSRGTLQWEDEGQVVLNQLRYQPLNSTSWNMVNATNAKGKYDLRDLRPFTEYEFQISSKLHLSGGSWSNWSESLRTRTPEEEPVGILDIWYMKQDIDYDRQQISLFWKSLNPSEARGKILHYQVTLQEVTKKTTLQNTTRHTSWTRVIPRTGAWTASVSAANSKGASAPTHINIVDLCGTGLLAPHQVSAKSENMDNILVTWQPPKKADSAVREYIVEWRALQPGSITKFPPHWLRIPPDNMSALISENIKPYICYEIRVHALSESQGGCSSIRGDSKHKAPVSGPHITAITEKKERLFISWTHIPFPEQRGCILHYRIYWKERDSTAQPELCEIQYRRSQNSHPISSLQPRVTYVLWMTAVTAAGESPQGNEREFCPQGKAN
# B1: anti-IL-12Rβ2 VHH clone 3CAHS153 (VHH, not shown: small tags and cut ends)
# VHH: QVQLQESGGGLVQAGGSLRLSCAASGRTFSSYAMGWFRQVPGKERDFVAAVSWGGLSTYYADSVEGRFTISRDNAKNTVFLQMNSLKPEDTAVYYCAADRAYEGLGYGEYEYWGQGTQVTVSS
# notes: periplasmic extract
# B2: anti-IL-12Rβ2 VHH clone 3CRH93 (VHH, not shown: small tags and cut ends)
# VHH: QVQLQESGGGLVQAGGSLRLSCAASGRTVDSYAMGWFRQTPGKEREFVAASWGGGSTYYADSVKGRFTISRDNVKNTMYLQMDSLKPEDTAVYYCAAGPTYYSGPINDNWEGRYDSWGQGTQVTVSS
# notes: periplasmic extract
# B3: anti-IL-12Rβ2 VHH clone 3CAH34 (VHH, not shown: small tags and cut ends)
# VHH: QVQLQESGGGSVQPGGSLRLSCGASGFTFSSFGMHWFRQAPGKGQEWAATISSSGGTTYYSDSVKGRFTISRDNAKNTLYLQMNSLKPEDTALYYCARDVTGAVRGQGTQVTVSS
# notes: periplasmic extract; also called 20358
# B4: anti-IL-12Rβ2 VHH clone 3CAHS172 (VHH, not shown: small tags and cut ends)
# VHH: B3 VHH with P14A, A48V
# notes: periplasmic extract
# B5: anti-IL-12Rβ2 VHH clone 20527 (VHH, not shown: small tags and cut ends)
# VHH: QVQLQESGGGLVQAGGSLRLSCAASGFTLSTYAMSWVRQAPGKGLEWVSSISSSGASTNYADSVKGRFTISRDNAKNTLYLQMNSLKPEDTAVYYCAKASQNYSPPGQGTQVTVSS
# notes: tested as periplasmic extract; also called 3CRMS90
# B6: anti-IL-12Rβ2 VHH clone 20452 (VHH, not shown: small tags and cut ends)
# VHH: B5 VHH with T28A, L29F, T31S, Y32V, S54G, A56H, S57D, D62N, A99S, Q101R
# notes: tested as periplasmic extract; also called 2CRM84
# B7: anti-IL-12Rβ2 VHH clone 20451 (VHH, not shown: small tags and cut ends)
# VHH: B5 VHH with A14P, L29F, T31A, S54T, A56T, S57N, T58P, K98E, S100Y, Q101R
# notes: tested as periplasmic extract; also called 2CRM83
# B8: anti-IL-12Rβ2 VHH clone 20447 (VHH, not shown: small tags and cut ends)
# VHH: B5 VHH with A14P, L29F, S30R, T31S, A56T, S57D, F68L, A75V
# notes: tested as periplasmic extract; also called 2CRM39
# B9: anti-IL-12Rβ2 VHH clone 20510 (VHH, not shown: small tags and cut ends)
# VHH: QVQLQESGGGLVQAGGSLRLSCAASGRTFSSYGMGWFRQAPGKEREFVAAISRGARITDYADSVKGRFTISRDNAKNTAYLQMNSLNPEDTAVYFCAAAYTYSGSHYVTARSSDYHSWGQGTQVTVSS
# notes: tested as periplasmic extract; also called 3CAM31
# B10: anti-IL-12Rβ2 VHH clone 20536 (VHH, not shown: small tags and cut ends)
# VHH: B9 VHH with L11M, I57N, H116P, S117Y
# notes: tested as periplasmic extract; also called 2CAMS53
# B11: anti-IL-12Rβ2 VHH clone 20480 (VHH, not shown: small tags and cut ends)
# VHH: B9 VHH with G54D, Q82E
# notes: tested as periplasmic extract; also called 2CAM36
# B12: anti-IL-12Rβ2 VHH clone 20499 (VHH, not shown: small tags and cut ends)
# VHH: B9 VHH with G54D, R56S, Q82E
# notes: tested as periplasmic extract; also called 2CAM75
# B13: anti-IL-12Rβ2 VHH clone 20481 (VHH, not shown: small tags and cut ends)
# VHH: B9 VHH with E46D, G54D, A75V, A79V
# notes: tested as periplasmic extract; also called 2CAM38
# B14: anti-IL-12Rβ2 VHH clone 20500 (VHH, not shown: small tags and cut ends)
# VHH: B9 VHH with A14P, R27F, G54D, Q82E
# notes: tested as periplasmic extract; also called 2CAM81
# B15: anti-IL-12Rβ2 VHH clone 20509 (VHH, not shown: small tags and cut ends)
# VHH: B9 VHH with S25A, E46D, G54D, S117T, V124D
# notes: tested as periplasmic extract; also called 3CAM30
# B16: anti-IL-12Rβ2 VHH clone 20511 (VHH, not shown: small tags and cut ends)
# VHH: B9 VHH with G16E, R19T, A23T, E46D, G54D, I57Y, R72K, S113G, H116N, S117Y
# notes: tested as periplasmic extract; also called 3CAM36
# B17: anti-IL-12Rβ2 VHH clone 20538 (VHH, not shown: small tags and cut ends)
# VHH: B9 VHH with A14P, G16D, I57N, H116P, S117Y
# notes: tested as periplasmic extract; also called 2CAMS83
# B18: anti-IL-12Rβ2 VHH clone 20497 (VHH, not shown: small tags and cut ends)
# VHH: B9 VHH with G16D
# notes: tested as periplasmic extract; also called 2CAM72
# B19: anti-IL-12Rβ2 VHH clone 20505 (VHH, not shown: small tags and cut ends)
# VHH: B9 VHH with L11S, G54D, Q82E
# notes: tested as periplasmic extract; also called 3CAM4
# B20: anti-IL-12Rβ2 VHH clone 20516 (VHH, not shown: small tags and cut ends)
# VHH: B9 VHH with G35S, E46D, G54D, A75V, A79V
# notes: tested as periplasmic extract; also called 3CAM85
# B21: anti-IL-12Rβ2 VHH clone 20504 (VHH, not shown: small tags and cut ends)
# VHH: QVQLQESGGGLVQAGGSLKLSCAATGFILDYVGVGWFRQAPGKERDFVAAISRDARITDYADSVKGRFTISRDNAKNTAYLQMNSLNPEDTAVYFCAAAYTYSGSHYVTARSSDYHTWGQGTQVTVSS
# notes: tested as periplasmic extract; also called 3CAM3
# B22: anti-IL-12Rβ2 VHH clone 20469 (VHH, not shown: small tags and cut ends)
# VHH: B9 VHH with A14P, E44K, G54D, Q82E
# notes: tested as periplasmic extract; also called 2CAM8
# B23: anti-IL-12Rβ2 VHH clone 20488 (VHH, not shown: small tags and cut ends)
# VHH: B9 VHH with V12M, G16D
# notes: tested as periplasmic extract; also called 2CAM48
# B24: anti-IL-12Rβ2 VHH clone 20495 (VHH, not shown: small tags and cut ends)
# VHH: B9 VHH with S31M, Y32H, G54D, H116N, S117Y
# notes: tested as periplasmic extract; also called 2CAM69
# B25: anti-IL-12Rβ2 VHH clone 20491 (VHH, not shown: small tags and cut ends)
# VHH: B9 VHH with E46D, G54D, I57Y, R72K, S113G, H116N, S117Y
# notes: tested as periplasmic extract; also called 2CAM57
# B26: anti-IL-12Rβ2 VHH clone 20514 (VHH, not shown: small tags and cut ends)
# VHH: B9 VHH with G16D, A23I, R27P, T28S, G54D, Q82E
# notes: tested as periplasmic extract; also called 3CAM70
# Target: T1, human IL-12Rβ2
# Assay: flow cytometry, P.E. on transfected HEK293T cells
% cells bound [%],dMFI,Binder
36.8,789,B1
31.5,580,B2
34.6,620,B3
43,1020,B4

# Target: T2, biotinylated recombinant human IL-12Rβ2
# Assay: ELISA, periplasmic extract on biotinylated hIL-12Rβ2, signal over control wells
row,ELISA binding hIL-12RB2/control [ratio],Binder
1,0.834,B5
2,0.989,B6
3,1.26,B7
4,1.4,B8
5,1.2,B9
6,0.842,B10
7,0.979,B11
8,0.985,B12
9,0.983,B13
10,0.982,B14
11,1.31,B15
12,1.2,B16
13,1.07,B17
14,0.932,B18
15,1.07,B19
16,1.23,B20
17,1.27,B21
18,1.05,B22
19,0.973,B23
20,0.924,B24
21,1,B25
22,1.03,B26

# Target: T3, biotinylated recombinant mouse IL-12Rβ2
# Assay: ELISA, periplasmic extract on biotinylated mIL-12Rβ2, signal over control wells
row,ELISA binding mIL-12RB2/control [ratio],Binder
1,9.93,B5
2,7.52,B6
3,33.5,B7
4,11.8,B8
5,16.4,B9
6,3.38,B10
7,18.1,B11
8,10.4,B12
9,15.8,B13
10,24,B14
11,10,B15
12,25.6,B16
13,4.78,B17
14,13.4,B18
15,20.2,B19
16,21.8,B20
17,14.5,B21
18,22,B22
19,12.9,B23
20,15.8,B24
21,14.4,B25
22,17.8,B26
